Legend:
p53Ψ [1] = target: T1, p53Ψ (Homo sapiens (Human), UniProt P04637 1-225); assay: co-immunoprecipitation from submitochondrial fractions, immunoblot
T1 construct: Whole p53Ψ isoform expressed ectopically in A549 cells; It was tested in submitochondrial fractions by co-immunoprecipitation; also called p53-psi; p53Ψ isoform

p53Ψ [2] = target: T1, p53Ψ; assay: co-immunoprecipitation from submitochondrial fractions with an anti-p53 N-terminal antibody, immunoblot
empty GST proteins = target: T2, empty GST proteins (UniProt P08515 1-218 = GST); assay: GST pull-down with purified proteins
T2 construct: Negative control of the pull-down
T2 sequence (P08515 whole entry): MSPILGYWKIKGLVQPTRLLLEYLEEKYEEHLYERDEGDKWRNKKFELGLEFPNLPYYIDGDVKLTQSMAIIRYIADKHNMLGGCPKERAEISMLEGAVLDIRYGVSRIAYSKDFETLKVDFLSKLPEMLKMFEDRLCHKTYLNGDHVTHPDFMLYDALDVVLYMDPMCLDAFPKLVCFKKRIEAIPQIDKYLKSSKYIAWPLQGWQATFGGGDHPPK

B1: BAK (other, UniProt Q16611 2-211, looked up)
chain: ASGQGPGPPRQECGEPALPSASEEQVAQDTEEVFRSYVFYRHQQEQEAEGVAAPADPEMVTLPLQPSSTMGQVGRQLAIIGDDINRRYDSEFQTMLQHLQPTAENAYEYFTKIATSLFESGINWGRVVALLGFGYRLALHVYQHGLTGFLGQVTRFVVDFMLHHCIARWIAQRGGWVAALNLGNGPILNVLVVLGVVLLGQFVVRRFFKS
Question: Does B1 bind (p53Ψ [1])?
Answer: no binding

B2: MnSOD (enzyme, UniProt P04179 25-222, looked up)
chain: KHSLPDLPYDYGALEPHINAQIMQLHHSKHHAAYVNNLNVTEEKYQEALAKGDVTAQIALQPALKFNGGGHINHSIFWTNLSPNGGGEPKGELLEAIKRDFGSFDKFKEKLTAASVGVQGSGWGWLGFNKERGHLQIAACPNQDPLQGTTGLIPLLGIDVWEHAYYLQYKNVRPDYLKAIWNVINWENVTERYMACKK
notes: Endogenous protein of A549 cells, a human cell line; also called SOD2
Question: Does B2 bind (p53Ψ [2])?
Answer: no binding

B3: purified p53Ψ (aa 102-243) (other)
chain: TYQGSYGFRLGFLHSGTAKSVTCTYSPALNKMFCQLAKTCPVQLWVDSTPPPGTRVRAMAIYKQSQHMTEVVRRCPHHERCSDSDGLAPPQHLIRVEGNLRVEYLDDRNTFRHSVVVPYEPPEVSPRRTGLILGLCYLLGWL
notes: Purified recombinant fragment used in the GST pull-down; also called recombinant p53Ψ
Question: Does B3 bind (empty GST proteins)?
Answer: no binding

From patent publication US20170211072A1 (COLD SPRING HARBOR LABORATORY, published 2017)
